Results: patent US20230212305A1 (published 2023)

Assays:
[1] = molecular target: T1, human ABCG2 (human, UniProt Q9UNQ0 1-655); assay: flow cytometry (FACS) on 293T_ABCG2_OX cells
T1 construct: also called hG2; KPG2
T1 sequence: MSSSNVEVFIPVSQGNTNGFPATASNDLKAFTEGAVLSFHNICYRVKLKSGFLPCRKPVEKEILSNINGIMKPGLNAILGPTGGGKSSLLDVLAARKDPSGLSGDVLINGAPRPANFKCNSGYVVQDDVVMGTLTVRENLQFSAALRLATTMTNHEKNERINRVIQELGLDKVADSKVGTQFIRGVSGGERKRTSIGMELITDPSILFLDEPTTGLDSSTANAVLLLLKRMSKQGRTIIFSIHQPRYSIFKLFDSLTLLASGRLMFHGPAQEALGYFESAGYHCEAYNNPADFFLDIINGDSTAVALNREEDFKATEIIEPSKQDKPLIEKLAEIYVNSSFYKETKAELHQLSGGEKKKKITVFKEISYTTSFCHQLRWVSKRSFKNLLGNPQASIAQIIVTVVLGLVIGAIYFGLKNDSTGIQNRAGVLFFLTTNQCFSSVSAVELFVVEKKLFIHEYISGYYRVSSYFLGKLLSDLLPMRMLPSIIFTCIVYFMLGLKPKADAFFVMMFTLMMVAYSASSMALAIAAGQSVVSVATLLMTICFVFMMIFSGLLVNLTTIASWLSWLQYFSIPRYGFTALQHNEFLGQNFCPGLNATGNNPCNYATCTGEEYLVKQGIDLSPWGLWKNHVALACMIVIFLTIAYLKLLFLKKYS

[2] = molecular target: T2, cynomolgus ABCG2 (Macaca fascicularis) (Macaca fascicularis (cynomolgus), UniProt Q5MB13 1-654 (rhesus entry)); assay: flow cytometry on cells expressing cynomolgus ABCG2; paragraph 395: non-significant binding = -
T2 construct: also called cABCG2
T2 sequence: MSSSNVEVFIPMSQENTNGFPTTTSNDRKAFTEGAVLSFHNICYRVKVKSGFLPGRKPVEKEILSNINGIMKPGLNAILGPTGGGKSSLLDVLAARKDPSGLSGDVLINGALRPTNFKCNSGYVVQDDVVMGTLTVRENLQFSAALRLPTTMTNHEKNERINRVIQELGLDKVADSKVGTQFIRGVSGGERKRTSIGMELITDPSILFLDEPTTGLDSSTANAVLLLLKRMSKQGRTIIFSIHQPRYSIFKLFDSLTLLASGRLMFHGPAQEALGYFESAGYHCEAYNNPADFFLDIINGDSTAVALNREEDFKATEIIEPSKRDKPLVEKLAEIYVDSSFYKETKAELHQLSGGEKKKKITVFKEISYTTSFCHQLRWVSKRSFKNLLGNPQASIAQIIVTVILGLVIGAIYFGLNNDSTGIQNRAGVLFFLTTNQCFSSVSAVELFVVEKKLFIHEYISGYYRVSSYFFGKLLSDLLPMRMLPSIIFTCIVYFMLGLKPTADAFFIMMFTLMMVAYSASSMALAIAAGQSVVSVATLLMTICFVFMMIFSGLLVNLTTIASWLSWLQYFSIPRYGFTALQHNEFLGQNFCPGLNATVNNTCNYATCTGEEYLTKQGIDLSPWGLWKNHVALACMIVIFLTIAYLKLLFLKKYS
Description: Cell Binding Assays. Antibody binding to cells was evaluated by flow cytometry. […] After incubating cells on ice for 30 min, cells were washed twice with flow cytometry buffer. Bound antibody was detected with PE-labeled F(ab′)₂ fragment goat anti-human IgG (Jackson ImmunoResearch) and evaluated on an Attune NxT flow cytometer.

- binding result [1]: binds
- binding result [2]: no binding
B1: G2.256 mouse (antibody, human IgG1, V domains shown)
VH: EVQLQQSGPELVKPGASLKISCKTFGYSFTGYYMHWVKQSPEKSLEWIGKIVPSTGGTTYNQKFKAKATLTVDKSSFTAYMQLKSLTSEDSAVYYCAREKVYGYDVYYFDYWGQGTTLTVSS
VL: DIVMSQSPATLSVTPGDRVSLSCRASQSISDYLHWYQQKSHESPRLLIKYASQSISGIPSRFSGSGSGSDFTLSINSVEPEDVGVYYCQNGHSFPWTFGGGTKLEIK
notes: Variable regions cloned onto human IgG1 constant heavy chain and human kappa constant light chain
